Numbering of substitutions follows the chain as printed. Numbers in names are those of the source.
B1: target 1 insU 3' of 12,insU 3' of 1 (mixed)
RNA 1: CACCCGUGCAAAAAUGCAGGGGUCUAAAACUGAGCGGAUAACCUCUCUAUGG
RNA 2: GGGAAUGGAUCCACAUCUACGAAUUCGUACCAUAGAGAGGUUUAUCCGCUCAUCCGAGAUCGGAAGAGCACACGU
B2: target 1 A1G,C2G (mixed)
RNA 1: B1 RNA 1
RNA 2: GGGAAUGGAUCCACAUCUACGAAUUCGUACCAUAGAGAGGUUAUCCGCUGGCCGAGAUCGGAAGAGCACACGU
B3: target 1 insA 3' of 7,insG 3' of 3 (mixed)
RNA 1: B1 RNA 1
RNA 2: B1 RNA 2 with U43A, A44U, U45C, C46A, C51G, A52C, U53A
B4: target 1 C6U,A16G (mixed)
RNA 1: B1 RNA 1
RNA 2: B2 RNA 2 with A36G, C46U, G50C, G51A
B5: target 2 MT 5'PFS AAA 3'PFS ACC (mixed)
RNA 1: CACCCGUGCAAAAUUGCAGGGGUCUAAAACCUUCUCCAAAUUGUUUCAUCCU
RNA 2: GGGAAUGGAUCCACAUCUACGAAUUCAAAAGGAUGAAACAAUUUGGAGAAGACCAGAUCGGAAGAGCACACGU
B6: target 2 MT 5'PFS GGG 3'PFS ACA (mixed)
RNA 1: B5 RNA 1
RNA 2: B5 RNA 2 with A27G, A28G, A29G, C54A
B7: target 2 MT 5'PFS CGA 3'PFS AUC (mixed)
RNA 1: B5 RNA 1
RNA 2: B5 RNA 2 with A27C, A28G, C53U
B8: target 2 MT 5'PFS GGG 3'PFS ACU (mixed)
RNA 1: B5 RNA 1
RNA 2: B5 RNA 2 with A27G, A28G, A29G, C54U
B9: target 2 MT 5'PFS CGA 3'PFS AUU (mixed)
RNA 1: B5 RNA 1
RNA 2: B5 RNA 2 with A27C, A28G, C53U, C54U
B10: target 2 MT 5'PFS GUA 3'PFS UCA (mixed)
RNA 1: B5 RNA 1
RNA 2: B5 RNA 2 with A27G, A28U, A52U, C54A
B11: target 2 MT 5'PFS ACA 3'PFS ACU (mixed)
RNA 1: B5 RNA 1
RNA 2: B5 RNA 2 with A28C, C54U
B12: target 2 MT 5'PFS CGC 3'PFS AUC (mixed)
RNA 1: B5 RNA 1
RNA 2: B5 RNA 2 with A27C, A28G, A29C, C53U
B13: target 2 MT 5'PFS GAG 3'PFS ACG (mixed)
RNA 1: B5 RNA 1
RNA 2: B5 RNA 2 with A27G, A29G, C54G
B14: target 2 MT 5'PFS AUU 3'PFS AAU (mixed)
RNA 1: B5 RNA 1
RNA 2: B5 RNA 2 with A28U, A29U, C53A, C54U
B15: target 2 MT 5'PFS UUA 3'PFS CAU (mixed)
RNA 1: B5 RNA 1
RNA 2: B5 RNA 2 with A27U, A28U, A52C, C53A, C54U
B16: target 2 MT 5'PFS GAG 3'PFS ACA (mixed)
RNA 1: B5 RNA 1
RNA 2: B5 RNA 2 with A27G, A29G, C54A
B17: target 2 MT 5'PFS ACC 3'PFS UGA (mixed)
RNA 1: B5 RNA 1
RNA 2: B5 RNA 2 with A28C, A29C, A52U, C53G, C54A
B18: target 2 MT 5'PFS UGA 3'PFS CCA (mixed)
RNA 1: B5 RNA 1
RNA 2: B5 RNA 2 with A27U, A28G, A52C, C54A
B19: target 2 MT 5'PFS UUG 3'PFS CCU (mixed)
RNA 1: B5 RNA 1
RNA 2: B5 RNA 2 with A27U, A28U, A29G, A52C, C54U
B20: target 2 MT 5'PFS ACC 3'PFS UGC (mixed)
RNA 1: B5 RNA 1
RNA 2: B5 RNA 2 with A28C, A29C, A52U, C53G
B21: target 2 MT 5'PFS GGG 3'PFS ACG (mixed)
RNA 1: B5 RNA 1
RNA 2: B5 RNA 2 with A27G, A28G, A29G, C54G
B22: target 2 MT 5'PFS UUA 3'PFS CAG (mixed)
RNA 1: B5 RNA 1
RNA 2: B5 RNA 2 with A27U, A28U, A52C, C53A, C54G
B23: target 2 MT 5'PFS GUA 3'PFS UCC (mixed)
RNA 1: B5 RNA 1
RNA 2: B5 RNA 2 with A27G, A28U, A52U
B24: target 2 MT 5'PFS GAC 3'PFS CGC (mixed)
RNA 1: B5 RNA 1
RNA 2: B5 RNA 2 with A27G, A29C, A52C, C53G
B25: target 2 MT 5'PFS UGA 3'PFS CCG (mixed)
RNA 1: B5 RNA 1
RNA 2: B5 RNA 2 with A27U, A28G, A52C, C54G
B26: target 2 MT 5'PFS ACC 3'PFS UAA (mixed)
RNA 1: B5 RNA 1
RNA 2: B5 RNA 2 with A28C, A29C, A52U, C53A, C54A
B27: target 2 MT 5'PFS GGC 3'PFS CUU (mixed)
RNA 1: B5 RNA 1
RNA 2: B5 RNA 2 with A27G, A28G, A29C, A52C, C53U, C54U
B28: target 2 MT 5'PFS GGG 3'PFS ACC (mixed)
RNA 1: B5 RNA 1
RNA 2: B5 RNA 2 with A27G, A28G, A29G
B29: target 2 MT 5'PFS CGU 3'PFS ACU (mixed)
RNA 1: B5 RNA 1
RNA 2: B5 RNA 2 with A27C, A28G, A29U, C54U
B30: target 2 MT 5'PFS CGC 3'PFS AUU (mixed)
RNA 1: B5 RNA 1
RNA 2: B5 RNA 2 with A27C, A28G, A29C, C53U, C54U
B31: target 2 MT 5'PFS ACC 3'PFS UGU (mixed)
RNA 1: B5 RNA 1
RNA 2: B5 RNA 2 with A28C, A29C, A52U, C53G, C54U
B32: target 2 MT 5'PFS GAG 3'PFS ACU (mixed)
RNA 1: B5 RNA 1
RNA 2: B5 RNA 2 with A27G, A29G, C54U
B33: target 2 MT 5'PFS UUG 3'PFS CCG (mixed)
RNA 1: B5 RNA 1
RNA 2: B5 RNA 2 with A27U, A28U, A29G, A52C, C54G
B34: target 2 MT 5'PFS CGU 3'PFS ACG (mixed)
RNA 1: B5 RNA 1
RNA 2: B5 RNA 2 with A27C, A28G, A29U, C54G
B35: target 2 MT 5'PFS UAG 3'PFS CAC (mixed)
RNA 1: B5 RNA 1
RNA 2: B5 RNA 2 with A27U, A29G, A52C, C53A
B36: target 2 MT 5'PFS GAG 3'PFS ACC (mixed)
RNA 1: B5 RNA 1
RNA 2: B5 RNA 2 with A27G, A29G
B37: target 2 MT 5'PFS UUA 3'PFS CAA (mixed)
RNA 1: B5 RNA 1
RNA 2: B5 RNA 2 with A27U, A28U, A52C, C53A, C54A
B38: target 2 MT 5'PFS UUA 3'PFS CAC (mixed)
RNA 1: B5 RNA 1
RNA 2: B5 RNA 2 with A27U, A28U, A52C, C53A

Molecular target: T1, EsCas13d, nuclease-dead (Eubacterium siraeum, UniProt B0MS50, R295A;H300A;R849A;H854A)
T1 sequence: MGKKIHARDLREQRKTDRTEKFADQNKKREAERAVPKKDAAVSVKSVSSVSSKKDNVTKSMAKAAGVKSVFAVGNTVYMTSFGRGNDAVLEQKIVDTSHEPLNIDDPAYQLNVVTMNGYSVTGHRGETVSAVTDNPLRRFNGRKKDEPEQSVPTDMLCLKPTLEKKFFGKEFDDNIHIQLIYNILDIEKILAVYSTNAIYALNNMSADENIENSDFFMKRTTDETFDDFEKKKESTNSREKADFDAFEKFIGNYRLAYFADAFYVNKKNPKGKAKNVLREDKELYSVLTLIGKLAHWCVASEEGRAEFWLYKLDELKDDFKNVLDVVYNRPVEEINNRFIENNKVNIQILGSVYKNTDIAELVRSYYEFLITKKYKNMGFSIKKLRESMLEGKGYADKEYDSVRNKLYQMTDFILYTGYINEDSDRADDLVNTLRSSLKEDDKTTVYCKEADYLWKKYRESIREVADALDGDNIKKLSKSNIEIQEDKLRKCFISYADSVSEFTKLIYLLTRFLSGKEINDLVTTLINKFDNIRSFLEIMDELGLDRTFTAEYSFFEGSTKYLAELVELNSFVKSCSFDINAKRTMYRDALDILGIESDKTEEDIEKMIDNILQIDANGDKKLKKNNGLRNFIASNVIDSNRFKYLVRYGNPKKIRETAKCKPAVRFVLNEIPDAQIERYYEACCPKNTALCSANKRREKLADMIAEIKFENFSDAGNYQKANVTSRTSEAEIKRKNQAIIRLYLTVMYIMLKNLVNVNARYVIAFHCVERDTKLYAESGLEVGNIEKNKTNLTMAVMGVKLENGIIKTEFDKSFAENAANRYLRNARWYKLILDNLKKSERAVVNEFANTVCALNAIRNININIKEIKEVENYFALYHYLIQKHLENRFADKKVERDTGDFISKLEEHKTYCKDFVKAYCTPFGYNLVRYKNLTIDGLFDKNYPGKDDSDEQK
Experiment: crRNA (strand 1, pre-loaded); Mg2+; 40 mM Tris-HCl pH 7.5, 150 mM NaCl, 6 mM MgCl2, 1 mM DTT, 0.1% Tween-20, 0.2 mg/ml BSA; 25 C; 10 min per concentration, then washed
Conditions: tags: His6-TwinStrep-SUMO cleaved; N-terminal SNAP kept (SNAP-Surface 488); label: 3' end held by stalled T7 RNA polymerase

Binder	Kd
B1	8.23 ± 0.33 nM
B2	5.54 ± 0.24 nM
B3	4.65 ± 0.13 nM
B4	31.9 ± 2.2 nM
B5	9.2 ± 2.8 nM
B6	9.4 ± 0.8 nM
B7	7.1 ± 1.4 nM
B8	9.3 ± 0.4 nM
B9	10.6 ± 3.3 nM
B10	10.3 ± 1.2 nM
B11	6.3 ± 1.3 nM
B12	4.6 ± 0.6 nM
B13	6.7 ± 0.32 nM
B14	7.1 ± 1.4 nM
B15	14.3 ± 1.3 nM
B16	9.6 ± 1.6 nM
B17	8 ± 1.4 nM
B18	15.6 ± 2.8 nM
B19	~80 nM

Binder	Kd
B20	7.7 ± 2.2 nM
B21	10.4 ± 0.6 nM
B22	18.5 ± 1.9 nM
B23	29 ± 5 nM
B24	14.8 ± 3.2 nM
B25	9.2 ± 1 nM
B26	~12 nM
B27	17.6 ± 1.8 nM
B28	22 ± 4 nM
B29	23 ± 5 nM
B30	5 ± 0.8 nM
B31	18 ± 6 nM
B32	8.1 ± 0.7 nM
B33	16.8 ± 1.4 nM
B34	21 ± 5 nM
B35	2.69 ± 0.34 nM
B36	14 ± 4 nM
B37	14.4 ± 2.6 nM
B38	30 ± 7 nM

— article PMC10786891, “Massively parallel profiling of RNA-targeting CRISPR-Cas13d”
